PMC3689846

Key:
Assay in all cases: SPR
[1] = molecular target: Core.HXB2 (core gp120 of HIV-1 strain HxB2, wild-type CD4 binding site) (HIV-1 strain HxB2)
[2] = molecular target: Core.BaL-GT1 (germline-targeting variant of core gp120) (HIV-1 strain BaL (from the name))
[3] = molecular target: eOD-GT6 (germline-targeting engineered outer domain of gp120) (HIV-1 strain HxB2)

Row | Substance | Kd [1] | Kd [2] | Kd [3]
1 | GL-PGV04 (predicted germline precursor of PGV04) (antibody) | > 100000 nM | > 100000 nM | 
2 | GL-PGV20 (predicted germline precursor of PGV20) (antibody) | > 100000 nM |  | 
3 | 3BNC60 (mature) (antibody) |  | 4 nM | 
4 | 12A12 (mature) (antibody) | 6 nM |  | 
5 | GL-12A12 (predicted germline precursor of 12A12) (antibody) | > 100000 nM |  | 
6 | GL-3BNC60 (predicted germline precursor of 3BNC60) (antibody) | > 100000 nM |  | 
7 | GL-NIH45-46 (predicted germline precursor of NIH45-46) (antibody) |  | > 100000 nM | 
8 | GL-PGV19 (predicted germline precursor of PGV19) (antibody) | > 100000 nM |  | 19 nM
9 | PGV20 (mature) (antibody) | 19 nM | 4 nM | 6 nM
10 | GL-VRC-CH31 (predicted germline precursor of VRC-CH31) (antibody) | > 100000 nM |  | 
